Measured values: publication PMC4725879

Legend:
[1] = system: LacI-Gly60+3 (Escherichia coli); test: EMSA; details: 5 mM Mg2+; EMSA: 20 mM Tris-HCl pH 8.0, 200 mM NaCl, 0.5 mM EDTA, 1 mM DTT, 5 mM MgCl2, 5% glycerol, 0.1 nM DNA, 22 C, 60 min; nicking assays at 37 C
[2] = system: LacI (lac repressor), wild type (Escherichia coli); test: EMSA; details: no IPTG; 5 mM Mg2+; EMSA: 20 mM Tris-HCl pH 8.0, 200 mM NaCl, 0.5 mM EDTA, 1 mM DTT, 5 mM MgCl2, 5% glycerol, 0.1 nM DNA, 22 C, 60 min; nicking assays at 37 C

| Substance | Ka [1] [M⁻¹] | Ka [2] [M⁻¹] |
| --- | --- | --- |
| lac O2 fragment | 6.2e+08 | – |
| lac Os fragment | 2.4e+09 | – |
| lac O1 fragment | 1e+09 | 1.2e+10 |
